Literature values in paper PMC10825016.
Where two headings read alike, the source gives them in different places.

Columns and labels:
GrpE (Escherichia coli) [1] = molecular target: GrpE (Escherichia coli) (UniProt P09372)
GrpE (Escherichia coli) [2] = molecular target: GrpE (Escherichia coli) (UniProt P09372); remark: listed apart in the source

Chain of DnaK (P0A6Y8 2-638): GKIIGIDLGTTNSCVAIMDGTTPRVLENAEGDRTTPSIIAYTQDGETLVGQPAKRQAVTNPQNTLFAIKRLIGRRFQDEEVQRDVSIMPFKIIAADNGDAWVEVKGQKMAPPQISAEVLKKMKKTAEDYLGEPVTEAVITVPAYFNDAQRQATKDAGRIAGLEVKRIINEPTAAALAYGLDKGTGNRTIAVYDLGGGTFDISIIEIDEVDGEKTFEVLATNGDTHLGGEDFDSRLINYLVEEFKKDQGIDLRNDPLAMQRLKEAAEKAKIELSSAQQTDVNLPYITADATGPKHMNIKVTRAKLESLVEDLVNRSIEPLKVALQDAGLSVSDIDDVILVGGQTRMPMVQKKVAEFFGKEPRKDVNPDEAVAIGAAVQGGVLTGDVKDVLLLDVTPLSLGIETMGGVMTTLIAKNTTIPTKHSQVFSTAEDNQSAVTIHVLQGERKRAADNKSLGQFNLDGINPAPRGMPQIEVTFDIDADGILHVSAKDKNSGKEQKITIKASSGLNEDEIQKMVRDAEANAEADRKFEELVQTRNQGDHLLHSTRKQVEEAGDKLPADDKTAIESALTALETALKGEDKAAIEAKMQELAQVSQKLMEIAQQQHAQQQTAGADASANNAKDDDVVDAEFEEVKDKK
Chain of GrpE (Escherichia coli) (P09372 whole entry): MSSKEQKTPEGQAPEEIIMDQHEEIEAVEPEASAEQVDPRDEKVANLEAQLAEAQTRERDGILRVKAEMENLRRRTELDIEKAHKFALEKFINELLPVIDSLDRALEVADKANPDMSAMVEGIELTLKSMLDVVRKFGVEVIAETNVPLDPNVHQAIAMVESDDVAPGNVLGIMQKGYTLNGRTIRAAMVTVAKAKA

Substance: DnaK (from UniProt P0A6Y8)
- Kd (GrpE (Escherichia coli) [1]): 0.011 µM
- Kd (GrpE (Escherichia coli) [2]): 0.22 µM
